In US7560245B2, “Luciferase and methods for measuring intracellular ATP using the same” (Kikkoman Corporation, priority 1997, dated 2009):
Changes are numbered by the printed parent chain. Values joined by “and” are separate entries in the source; they are usually repeats but may differ in a detail not shown here. Equal values may be shown once.

B1: HIK: Polypeptide of SEQ ID NO:6; HEIKE firefly luciferase with Ala217 substituted by Ile and Glu490 by Lys (protein, listed as Luciola lateralis)
chain: MENMENDENIVYGPEPFYPIEEGSAGAQLRKYMDRYAKLGAIAFTNALTGVDYTYAEYLEKSCCLGEALKNYGLVVDGRIALCSENCEEFFIPVLAGLFIGVGVAPTNEIYTLRELVHSLGISKPTIVFSSKKGLDKVITVQKTVTAIKTIVILDSKVDYRGYQSMDNFIKKNTPQGFKGSSFKTVEVNRKEQVALIMNSSGSTGLPKGVQLTHENIVTRFSHARDPIYGNQVSPGTAILTVVPFHHGFGMFTTLGYLTCGFRIVMLTKFDEETFLKTLQDYKCSSVILVPTLFAILNRSELLDKYDLSNLVEIASGGAPLSKEIGEAVARRFNLPGVRQGYGLTETTSAIIITPEGDDKPGASGKVVPLFKAKVIDLDTKKTLGPNRRGEVCVKGPMLMKGYVDNPEATREIIDEEGWLHTGDIGYYDEEKHFFIVDRLKSLIKYKGYQVPPAELESVLLQHPNIFDAGVAGVPDPIAGELPGAVVVLKKGKSMTEKEVMDYVASQVSNAKRLRGGVRFVDEVPKGLTGKIDGKAIREILKKPVAKM
B2: HLK: Polypeptide of SEQ ID NO:4; HEIKE firefly luciferase with Ala217 substituted by Leu and Glu490 by Lys (protein, listed as Luciola lateralis)
chain: B1 chain with I217L

Assays:
[1] = Comparison of emission rate (remaining activity) with 0.4% benzalkonium chloride; type: biochemical; conditions: for Light emission (RLU) Without extraction reagent: 25 mM Tricine pH 7.75 instead of 0.4% benzalkonium chloride; for Light emission (RLU) Without extraction reagent / Light emission (RLU) With extraction reagent: 5 seconds waiting, 3 seconds measuring; for Light emission (RLU) With extraction reagent: 0.4% benzalkonium chloride
[2] = as above; type: biochemical; conditions: emission with 0.4% benzalkonium chloride divided by control (25 mM Tricine)
Method: (§1) Enzyme samples were obtained by preparing luciferase samples derived from various firefly species using enzyme-diluted solution (1 mM EDTA, 1 mM 2-mercaptoethanol, 5% glycerol, 50 mM HEPES, (pH7.5)) to achieve 0.5 MLU/ml concentration.
(§2) 50 μl of 0.4% benzalkonium chloride (25 mM Tricine at pH 7.75) and then 50 μl of the enzyme sample were added to 100 μl of substrate solution (4 mM ATP, 0.4 mM luciferin, 10 mM magnesium sulfate, 50 mM HEPES (pH 7.5)). After the solution was stirred for 5 seconds, the light emission was measured every second using Berthold Lumat LB-9501 for 1 minute.
The influence of the enzyme solution, substrate solution and benzalkonium chloride used when measuring change with time, on the measurement values taken under actual emission measurement conditions, was examined.
In addition, the emission rate (remaining activity) was calculated by dividing the light emission measured in the presence of 0.4% benzalkonium chloride by a control value. Here the control value was the light emission upon use of 25 mM Tricine at pH 7.75 instead of 0.4% benzalkonium chloride.

[3] = Comparison of IC50: benzalkonium chloride concentration inactivating luciferase by 50%; type: biochemical; conditions: 10 minutes contact at room temperature, 0.01 to 0.1% benzalkonium chloride
Method: Benzalkonium chloride and various luciferases were contacted with each other for 10 minutes. Then the benzalkonium chloride concentration (IC50), at which activity is inactivated by 50% was determined. Equal amounts of luciferase solution prepared at this concentration and 0.01 to 0.1% benzalkonium chloride were mixed, and then allowed to stand for 10 minutes at room temperature. Subsequently, 100 μl of substrate solution was added to the mixture. Immediately after addition, the light emission was measured using Berthold Lumat LB-9501.

[4] = Surfactant resistance: change of light emission with time, 0.4% benzalkonium chloride; type: biochemical; conditions: for decay of light emission with time: FIG. 2 and 3
Method: as §1, §2
Along the vertical axis in this figure, the relative ratio of the light emission was plotted with the initial amount of light emitted considered to be 100% upon use of 25 mM Tricine (pH 7.75) instead of 0.4% benzalkonium chloride.
(§3) To compare surfactant resistance of mutant luciferase with that of known luciferase, changes in emission with time were measured according to the aforementioned methods of measuring surfactant resistance.

E. coli ATCC 25922 = test: Detection of intracellular ATP, 0.25% BAC extraction reagent; type: cell-based, Escherichia coli; conditions: for Relative ratio (%): TCA extraction method = 100%
Method: (§4) A standard technique used herein was TCA extraction method wherein intracellular ATP is extracted using trichloroacetic acid (TCA) and the amount of ATP extracted is measured using luciferin-luciferase luminescence reaction. TCA extraction method is excellent in extraction efficiency. Further in TCA extraction method no inhibition of luminescence reaction is caused by TCA because emission is measured after the sample containing TCA is diluted 1:100. Because of this dilution, however, TCA extraction method is complicated and can cause a decrease in the measuring sensitivity. Benzalkonium chloride (BAC, Japanese Pharmacopoeia) was used. ATP extraction reagent was prepared by dissolving this surfactant at 0.25% concentration into 25 mM Tricine (pH 7.75). Four strains, Escherichia coli (ATCC 25922), Staphylococcus aureus (ATCC 25923), Pseudomonas aeruginosa (ATCC 27853) and Enterococcus faecalis (ATCC 29212) were used. In standard techniques, a sample, undiluted solution, was prepared by culturing the prescribed microorganisms on a normal broth medium (produced by Eiken chemical Co., Ltd.) at 35° C. overnight. In the method of the present invention, a sample diluted solution was prepared by diluting an undiluted solution of the culture fluid to 1:100 with sterile water. Luminescence reagent was prepared by adding various luciferase to solution containing 0.15 mM luciferin, 6 mM EDTA, 15 mM magnesium acetate, 0.2 mM dithiothreitol, 0.5% BSA and 25 mM HEPES (pH 7.75). The amount of luciferase to be added was prepared such that the light emission produced when 100 μl of 2×10^−8 M ATP standard solution was added to 100 μl of the luminescence reagent would be the same amount of the light emission produced when a luminescence reagent attached to Luciferase LU (Kikkoman Corporation) was used. ATP extraction reagent 100 μl was added to 100 μl of a sample. The solution was allowed to stand for 20 seconds at room temperature. Then 100 μl of the luminescence reagent was added to this solution. Immediately after addition, the light emission was measured using Lumat LB-9501 produced by Berthold. 10% trichloro acetate solution 100 μl was added to 100 μl of a sample and the solution was allowed to stand for 1 minute. 25 mM Tricine (pH 7.75) 9.8 ml was added to this extract, and then the extract was well stirred. 25 mM Tricine (pH 7.75) and 100 μl of a luminescence reagent attached to CheckLite LU (produced by Kikkoman Corporation) were added to 100 µl of the sample. Immediately after addition, the light emission was measured using Lumat LB-9501 produced by Berthold. The relative ratio of the light emissions obtained by the use of the luminescence reagents using various luciferase types is also shown in these tables. Here the light emission obtained by the standard technique (TCA extraction method) was defined as 100%.

[5] = test system: Escherichia coli, Staphylococcus aureus, Pseudomonas aeruginosa and Enterococcus faecalis; test: Detection of intracellular ATP, summary over the four strains; type: cell-based; conditions: 0.25% BAC extraction reagent
Method: as §4, with “In standard techniques, a sample, undiluted solution, was prepared by culturing the prescribed microorganisms on a normal broth medium (produced by Eiken chemical Co., Ltd.) at 35° C. overnight. In the method of the present invention, a sample diluted solution was prepared by diluting an undiluted solution of the culture fluid to 1:100 with sterile water.” left out, “ATP extraction reagent 100 μl was added to 100 μl of a sample. The solution was allowed to stand for 20 seconds at room temperature.” left out, “10% trichloro acetate solution 100 μl was added to 100 μl of a sample and the solution was allowed to stand for 1 minute. 25 mM Tricine (pH 7.75) 9.8 ml was added to this extract, and then the extract was well stirred.” left out, “Here the light emission obtained by the standard technique (TCA extraction method) was defined as 100%.” left out

P. aeruginosa ATCC 27853 = test: Detection of intracellular ATP, 0.25% BAC extraction reagent; type: cell-based, Pseudomonas aeruginosa; conditions: for Relative ratio (%): TCA extraction method = 100%
Method: as §4

E. faecalis ATCC 29212 = test: as above; type: cell-based, Enterococcus faecalis; conditions: for Relative ratio (%): TCA extraction method = 100%
Method: as §4

S. aureus ATCC 25923 = test: as above; type: cell-based, Staphylococcus aureus; conditions: for Relative ratio (%): TCA extraction method = 100%
Method: as §4

[6] = Surfactant resistance: change of light emission with time, 0.8% benzethonium chloride; type: biochemical; conditions: FIG. 4
Method: as §1
[…] After the solution was stirred for 5 seconds, the light emission was measured every second using Berthold Lumat LB-9501 for 1 minute.
as §3

Row | Molecule | Light emission (RLU) Without extraction reagent [1] [RLU] | Light emission (RLU) With extraction reagent [1] [RLU] | luciferase activity (remaining) ([1]; in the presence of 0.1% benzalkonium chloride) | Emission rate (remaining activity) [2] | IC50 (benzalkonium chloride concentration at which activity is inactivated by 50%) [3] [%] | initial light emission ([4]; FIG. 2) | decay of light emission with time [4] | Measured value (RLU) (E. coli ATCC 25922) | Relative ratio (%) (E. coli ATCC 25922) | emission of the luminescence reagent [5] | Measured value (RLU) (P. aeruginosa ATCC 27853) | Relative ratio (%) (P. aeruginosa ATCC 27853) | Measured value (RLU) (E. faecalis ATCC 29212) | Relative ratio (%) (E. faecalis ATCC 29212) | Measured value (RLU) (S. aureus ATCC 25923) | Relative ratio (%) (S. aureus ATCC 25923) | decay of light emission with time [6] | improvement of initial light emission ([4]; compared with HEIKE L mutant, FIG. 3)
1 | North American firefly: luciferase derived from North American firefly, a commercial product (Sigma, L-9506) [reference compound] | 452563 | 97790 | about 20% | 21.6% | 0.014 | low in the initial light emission | decayed rapidly | 153 | (0.1) % | No emission was observed | 553 | (0.3) % | 113 | (0.1) % | 163 | (0.1) % | – | –
2 | B1 | 386429 | 345159 | – | 89.3% | 0.032 | – | decayed more slowly than that of the HEIKE I mutant | 97073 | (73.1) % | more intense than that from wild-type HEIKE luciferase and thermostable luciferase | 131134 | (78.0) % | 7914 | (63.7) % | 76533 | (58.8) % | more slowly than that of HEIKE I mutant | –
3 | B2 | 390289 | 396764 | – | 101.7% and ~100% | 0.035 | – | slower decay in the light emission | 87981 | (66.3) % | more intense than that from wild-type HEIKE luciferase and thermostable luciferase | 131815 | (78.4) % | 7998 | (64.4) % | 72182 | (55.4) % | slower decay in light emission than that of HEIKE L mutant | about 20%
